Drawing on the PETadex activity labels (doi:10.1021/bi00096a018), this text covers Km and kcat for 3 proteins.

B1: unnamed (protein)
chain: MRPPWYPLHTPSLAFPLLFLLLSLLGGGARAEGREDPQLLVRVRGGQLRGIRLKAPGGPVSAFLGIPFAEPPVGSRRFMPPEPKRPWSGVLDATTFQNVCYQNVDTLYPGFEGTEMWNPNRELSEDCLYLNVWTPYPRPASPTPVLIWIYGGGFYSGAASLDVYDGRFLAQVEGAVLVSMNYRVGTFGFLALPGSREAPGNVGLLDQRLALQWVQENIAAFGGDPMSVTLFGESAGAASVGMHILSLPSRSLFHRAVLQSGTPNGPWATVSAGEARRRATLLARLVGCPPGGAGGNDTELIACLRTRPAQDLVDHERHVLPQESIFRFSFVPVVDGDFLSDTPEALINTGDFQDLQVLVGVVKDEGSYFLVYGVPGFSKDNESLISRAQFLAGVRIGVPQASDLAAEAVVLHYTDWLHPEDPTHLRDAMSAVVGDHNVVCPVAQLAGRLAAQGARVYAYIFEHRASTLTWPLWMGVPHGYEIEFIFGLPLDPSLNYTTEERIFAQRLMKYWTNFARTGDPNDPRDSKSPQWPPYTTAAQQYVSLNLKPLEVRRGLRAQTCAFWNRFLPKLLSATDTLDEAERQWKAEFHRWSSYMVHWKNQFDHYSKQERCSDL
B2: unnamed (protein)
chain: B1 chain with Y155Q, R317W
B3: unnamed (protein)
chain: B1 chain with N103Y, Y155Q, R317W

One may read the Km as the substrate concentration at which the rate is half of its maximum. What is called kcat is the maximal rate divided by the concentration of active sites.

Residue numbers refer to the chain shown, from its start.

Substrate in the data set: Acetylcholine
The settings on record: pH 7; 22 °C.
Take B1: the Km was 670 µM and the kcat amounted to 3170 s⁻¹.

With B2, the Km worked out at 95 µM and the kcat worked out at 1570 s⁻¹.

B3: the Km was determined as 120 µM and the kcat worked out at 1830 s⁻¹.
